The record followed here is publication PMC10450186.

Data set [1] addresses T1, pmRPA-S33D (human, UniProt P27694;P15927;P35244 1-616;1-270;1-121, S33D;RPA32). Briefly: EMSA; one shifted band; EMSA: 50 mM Tris-HCl pH 7.5, 50 mM NaCl, 1 mM DTT, 0.01% Tween-20, 23°C, 10 nM labeled DNA; NSMF-DNA gels 1.5% agarose in 1xTBE at 4°C. The note with it: protein: recombinant; tags: 7xHis; copies: 1;1;1; label: 5' Cy5.
For data set [2], the target named is DBM-RPA (human, UniProt P27694;P15927;P35244 1-616;1-270;1-121, W107A;F135A;RPA32). Briefly: EMSA; 25 nM; single molecule bound; EMSA: 50 mM Tris-HCl pH 7.5, 50 mM NaCl, 1 mM DTT, 0.01% Tween-20, 23°C, 10 nM labeled DNA; NSMF-DNA gels 1.5% agarose in 1xTBE at 4°C. The note with it: protein: recombinant; copies: 1;1;1; label: 5' Cy5. (In general: In EMSA bound probe runs differently from free probe, usually more slowly.)
Chain of DBM-RPA (P27694 whole entry, stated change not applied, chain 1 of 3): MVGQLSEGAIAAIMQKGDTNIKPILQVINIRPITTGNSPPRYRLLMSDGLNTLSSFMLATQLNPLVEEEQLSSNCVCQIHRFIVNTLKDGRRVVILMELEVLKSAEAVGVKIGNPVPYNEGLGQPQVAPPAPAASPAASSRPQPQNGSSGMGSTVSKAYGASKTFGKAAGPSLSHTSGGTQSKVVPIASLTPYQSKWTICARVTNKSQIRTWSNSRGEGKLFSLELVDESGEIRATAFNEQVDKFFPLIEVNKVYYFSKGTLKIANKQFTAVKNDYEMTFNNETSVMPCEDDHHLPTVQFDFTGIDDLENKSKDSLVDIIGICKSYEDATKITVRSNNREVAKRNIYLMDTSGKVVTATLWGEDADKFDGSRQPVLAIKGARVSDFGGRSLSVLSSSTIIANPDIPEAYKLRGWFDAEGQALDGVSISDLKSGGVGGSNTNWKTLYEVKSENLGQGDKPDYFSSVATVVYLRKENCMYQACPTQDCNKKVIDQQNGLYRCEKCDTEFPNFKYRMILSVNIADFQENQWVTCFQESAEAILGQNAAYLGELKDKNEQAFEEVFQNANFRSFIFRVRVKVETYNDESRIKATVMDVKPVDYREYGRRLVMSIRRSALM
Chain of DBM-RPA (P15927 whole entry W107A/F135A, chain 2 of 3): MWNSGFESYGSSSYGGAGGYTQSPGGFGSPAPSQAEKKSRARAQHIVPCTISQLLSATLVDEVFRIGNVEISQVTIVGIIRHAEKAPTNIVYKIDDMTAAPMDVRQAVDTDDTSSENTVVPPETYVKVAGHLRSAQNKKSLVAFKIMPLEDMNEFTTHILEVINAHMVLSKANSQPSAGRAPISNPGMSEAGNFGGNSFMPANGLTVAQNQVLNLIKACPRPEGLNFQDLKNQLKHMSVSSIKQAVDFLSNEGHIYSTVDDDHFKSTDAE
Chain of DBM-RPA (P35244 whole entry, stated change not applied, chain 3 of 3): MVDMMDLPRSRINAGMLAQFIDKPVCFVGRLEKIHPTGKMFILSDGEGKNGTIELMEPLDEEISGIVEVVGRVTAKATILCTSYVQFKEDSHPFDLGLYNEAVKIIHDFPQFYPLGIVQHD

For data set [3], the target named is T2, RPA heterotrimer WT (RPA70/RPA32/RPA14) (human, UniProt P27694;P15927;P35244 1-616;1-270;1-121). Briefly: EMSA; two shifted bands up to 150 nM RPA; EMSA: 50 mM Tris-HCl pH 7.5, 50 mM NaCl, 1 mM DTT, 0.01% Tween-20, 23°C, 10 nM labeled DNA; NSMF-DNA gels 1.5% agarose in 1xTBE at 4°C. The note with it: protein: recombinant; tags: untagged; 7xHis version also made; copies: 1;1;1; label: 5' Cy5.
T2 sequence (P27694 whole entry, chain 1 of 3): as the sequence (P27694 whole entry, stated change not applied, chain 1 of 3) above
T2 sequence (P15927 whole entry, chain 2 of 3): as the sequence (P15927 whole entry W107A/F135A, chain 2 of 3) above, with A107W, A135F counted along it
T2 sequence (P35244 whole entry, chain 3 of 3): as the sequence (P35244 whole entry, stated change not applied, chain 3 of 3) above

For data set [4], the target named is T3, RPA-eGFP heterotrimer (human, UniProt P27694;P15927;P35244 1-616;1-270;1-121). Briefly: single-molecule fluorescence; EMSA: 50 mM Tris-HCl pH 7.5, 50 mM NaCl, 1 mM DTT, 0.01% Tween-20, 23°C, 10 nM labeled DNA; NSMF-DNA gels 1.5% agarose in 1xTBE at 4°C. The note with it: protein: recombinant; tags: 6xHis; eGFP at C-term of RPA70; copies: 1;1;1; label: 5' biotin.
T3 sequence (P27694 whole entry, chain 1 of 3): as the sequence (P27694 whole entry, stated change not applied, chain 1 of 3) above
T3 sequence (P15927 whole entry, chain 2 of 3): as the sequence (P15927 whole entry W107A/F135A, chain 2 of 3) above, with A107W, A135F counted along it
T3 sequence (P35244 whole entry, chain 3 of 3): as the sequence (P35244 whole entry, stated change not applied, chain 3 of 3) above

Data set [5] has as its target T4, NSMF WT (UniProt Q6X4W1 1-530).
T4 sequence: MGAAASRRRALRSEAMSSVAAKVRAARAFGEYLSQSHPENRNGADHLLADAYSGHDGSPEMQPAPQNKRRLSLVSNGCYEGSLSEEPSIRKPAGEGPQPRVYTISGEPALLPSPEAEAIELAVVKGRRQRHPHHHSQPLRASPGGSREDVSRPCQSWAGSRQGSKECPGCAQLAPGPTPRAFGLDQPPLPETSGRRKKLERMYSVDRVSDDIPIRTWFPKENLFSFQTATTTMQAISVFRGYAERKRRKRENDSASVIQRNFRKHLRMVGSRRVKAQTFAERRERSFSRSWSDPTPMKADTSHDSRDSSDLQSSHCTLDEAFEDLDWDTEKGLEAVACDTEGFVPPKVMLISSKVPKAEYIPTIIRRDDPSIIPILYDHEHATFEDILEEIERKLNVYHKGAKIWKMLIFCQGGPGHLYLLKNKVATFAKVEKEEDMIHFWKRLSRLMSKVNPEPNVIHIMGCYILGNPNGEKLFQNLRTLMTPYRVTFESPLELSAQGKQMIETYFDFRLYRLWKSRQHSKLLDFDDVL
Briefly: EMSA; low affinity; EMSA: 50 mM Tris-HCl pH 7.5, 50 mM NaCl, 1 mM DTT, 0.01% Tween-20, 23°C, 10 nM labeled DNA; NSMF-DNA gels 1.5% agarose in 1xTBE at 4°C. The note with it: protein: recombinant, tags: N-term 3xFLAG, C-term 10xHis (MBP cleaved).

Data set [6] concerns the target T2, RPA heterotrimer WT (RPA70/RPA32/RPA14). Briefly: EMSA; single shifted band; EMSA: 50 mM Tris-HCl pH 7.5, 50 mM NaCl, 1 mM DTT, 0.01% Tween-20, 23°C, 10 nM labeled DNA; NSMF-DNA gels 1.5% agarose in 1xTBE at 4°C. The note with it: protein: recombinant; tags: untagged; 7xHis version also made; copies: 1;1;1; label: 5' Cy5.
The target in data set [7] is T4, NSMF WT. Briefly: EMSA; up to 3000 nM NSMF; EMSA: 50 mM Tris-HCl pH 7.5, 50 mM NaCl, 1 mM DTT, 0.01% Tween-20, 23°C, 10 nM labeled DNA; NSMF-DNA gels 1.5% agarose in 1xTBE at 4°C. The note with it: protein: recombinant; tags: N-term 3xFLAG, C-term 10xHis (MBP cleaved); label: Cy3 on Oligo1, Cy5 on RNA oligo; bubble 1:2, RNA strand 3 paired to strand 2 in bubble.
Data set [8] concerns the target T3, RPA-eGFP heterotrimer. Briefly: single-molecule photobleaching; two steps predominant; EMSA: 50 mM Tris-HCl pH 7.5, 50 mM NaCl, 1 mM DTT, 0.01% Tween-20, 23°C, 10 nM labeled DNA; NSMF-DNA gels 1.5% agarose in 1xTBE at 4°C. The note with it: protein: recombinant; tags: 6xHis; eGFP at C-term of RPA70; copies: 1;1;1; label: 5' biotin.
Data set [9] concerns the target T1, pmRPA-S33D. Briefly: EMSA; two shifted bands; EMSA: 50 mM Tris-HCl pH 7.5, 50 mM NaCl, 1 mM DTT, 0.01% Tween-20, 23°C, 10 nM labeled DNA; NSMF-DNA gels 1.5% agarose in 1xTBE at 4°C. The note with it: protein: recombinant; tags: 7xHis; copies: 1;1;1; label: 5' Cy5.
The target of data set [10] is T2, RPA heterotrimer WT (RPA70/RPA32/RPA14). Briefly: EMSA; three shifted bands; EMSA: 50 mM Tris-HCl pH 7.5, 50 mM NaCl, 1 mM DTT, 0.01% Tween-20, 23°C, 10 nM labeled DNA; NSMF-DNA gels 1.5% agarose in 1xTBE at 4°C. The note with it: protein: recombinant; tags: untagged; 7xHis version also made; copies: 1;1;1; label: 5' Cy5.
For data set [11], the target named is T3, RPA-eGFP heterotrimer. Briefly: single-molecule photobleaching; three steps predominant; EMSA: 50 mM Tris-HCl pH 7.5, 50 mM NaCl, 1 mM DTT, 0.01% Tween-20, 23°C, 10 nM labeled DNA; NSMF-DNA gels 1.5% agarose in 1xTBE at 4°C. The note with it: protein: recombinant; tags: 6xHis; eGFP at C-term of RPA70; copies: 1;1;1; label: 5' biotin.

T1 sequence (P27694 whole entry, stated change not applied, chain 1 of 3): as the sequence (P27694 whole entry, stated change not applied, chain 1 of 3) above
T1 sequence (P15927 whole entry S33D, chain 2 of 3): as the sequence (P15927 whole entry W107A/F135A, chain 2 of 3) above, with S33D, A107W, A135F counted along it
T1 sequence (P35244 whole entry, stated change not applied, chain 3 of 3): as the sequence (P35244 whole entry, stated change not applied, chain 3 of 3) above

On to TTTTTTTTTTTTTTTTTTTTTTTTTTTTTT (ssDNA) [30-nt ssDNA (dT30)], for which the binding result in data set [1], in data set [2] and in [3] was “binds” in each case.

For TTTTTTTTTTTTTT (ssDNA) [Biotinylated 14-nt ssDNA], in [4], the binding result is “binds”.

B1: Fork (Y-shape) (mixed)
DNA 1: GCCAGGGACGAGGTGAACCTGCAGGTGGGCGGCTACTACTTTTTTTTTTTTTTTTTTTTTTTTTTTTTTTTTTTTTTTT
DNA 2: TTTTTTTTTTTTTTTTTTTTTTTTTTTTTTTTTTTTTTTAGTAGTAGCCGCCCACCTGCAGGTTCACCTCGTCCCTGGC
As to B1, in data set [5] (label: 5' Cy5 on strand 1, fork 1:2, two poly-dT arms), the binding result was “binds”. With TTTTTTTTTTTTTT (ssDNA) [14-nt ssDNA (dT14)], the binding result in data set [6] was “binds”.

B2: R-loop (mixed)
DNA 1: GCCAGGGACGAGGTGAACCTGCAGGTGGGCGGCTACTACTTAGATGTCATCCGAGGCTTATTGGTAGAATTCGGCAGCGTCATGCGACGGC
DNA 2: GCCGTCGCATGACGCTGCCGAATTCTACCACGCGATTCATACCTGTCGTGCCAGCTGCTTTGCCCACCTGCAGGTTCACCTCGTCCCTGGC
RNA: GCAGCUGGCACGACAGGUAUGAAUC
For the molecule B2, in data set [7], the binding result was “no binding”. On to TTTTTTTTTTTTTTTTTTTTTTTTTTTTTT (ssDNA) [Biotinylated 30-nt ssDNA], for which, in [8], the binding result is “binds”.

B3: 60-nt ssDNA (ssDNA)
DNA: TATTCATTGTTTTACCTATTGTACCTTATTCTTAATTCATTTTACTAATCATTTACGAGT
For B3, the binding result in data set [9] and in [10] was “binds” in each case.

B4: Biotinylated 60-nt ssDNA (ssDNA)
DNA: TATTCATTGTTTTACCTATTGTACCTTATTCTTAATTCATTTTACTAATCATTTACGAGT
Turning to B4, the binding result in data set [11] is listed as “binds”.

B5: PTJ (primer-template junction) (mixed)
DNA 1: TGGCGACGGCAGCGAGGCAGGTCAGGAATTCTGATC
DNA 2: GATCAGAATTCCTGACCT
As for B5, in data set [5] (18 bp duplex, 5' overhang 18 nt on strand 1), the binding result is given as “binds”.
